Results reported in publication PMC4180279 (Biochemistry, 2014).

Key:
CaM = assay: In vitro pull-down binding of CaM to GST-PQ constructs, Western blot; parameters: species or system human; conditions: presence or absence of 1 μM free Ca2+
From the text: DNA constructs and molecular biology GST-NCS-1[24] and NCS-1-mCherry[18] plasmids were as previously described. The coding sequence for human CaM was amplified by polymerase chain reaction (PCR) from oligo-dT(15)-primed HeLa cell RNA and reverse-transcribed first-strand cDNA template with the following primer pair (based on GenBank accession number M19311) containing restriction endonuclease sites (underlined) for subcloning into N-terminal GST tag vector pGex6P-1 (Amersham Biosciences): sense (BamHI), 5′-[…]-3′; antisense (XhoI), 5′-[…]-3′. GST-P/Q, encoding residues 1898–2035 of the rat P/Q channel α1 subunit (GenBank accession number NM_012918) was amplified by PCR from a rat brain single-strand cDNA template with the following primer pair containing restriction endonuclease sites (underlined) for subcloning into pGex6P-1: sense (BamHI), 5′-[…]-3′; antisense (XhoI), 5′-[…]-3′. GST-CBD (residues 1950–2035) of the rat P/Q channel α1 subunit was amplified by PCR from the GST-P/Q template using the P/Q reverse primer and a sense primer containing a BamHI site (underlined) for subsequent subcloning into pGex6P-1 (5′-[…]-3′). GST-P/Q^IM→EE was generated by site-directed mutagenesis of the GST-P/Q plasmid using the QuikChange reagents and protocol (Agilent Technologies) and the following primer pair: sense, 5′-[…]-3′; antisense, 5′-[…]-3′.
For the In vitro protein binding assays, 5 μM GST fusion protein (GST-P/Q, GST-P/Q^IM→EE, or GST-CBD) was immobilized onto 30 μL of glutathione-agarose resin (Thermo Scientific) that had been prewashed in binding buffer (BB) [150 mM KCl, 20 mM HEPES (pH 7.4), 10% (v/v) glycerol, 5 mM NTA, 5 mM EGTA, 1 mM DTT, and 0.1% (v/v) NP-40] or BB supplemented with 1 μM free Ca^2+ (BB+Ca^2+) by incubation for 30 min with constant agitation at 4 °C. […]
Nitrocellulose filters were blocked by incubation in a blocking solution [3% (w/v) skim milk powder in PBS] for 1 h at room temperature. […] Densitometry analysis of developed Western blots was performed using Quantity-1 (Bio-Rad). […]

NCS-1 = molecular target: T1, NCS-1 (Homo sapiens, UniProt P62166); assay: In vitro pull-down binding of NCS-1 to GST-PQ constructs, Western blot densitometry; conditions: for average NCS-1 bound: 5 μM GST fusion protein, 5 μM NCS-1, 1 h, 4 °C, pH 7.4, normalized: NCS-1 bound to GST-PQ with Ca2+ = 100%, minimal binding without Ca2+ = 0%, mean of n = 3
T1 construct: His tag (TEV-cleavable) (N, cleaved yes); made in house; host or cells: Escherichia coli BL21(DE3)

HeLa cells = assay: Localization of fluorescently tagged proteins in HeLa cells, confocal imaging, puncta scoring; type: cell-based; conditions: for cells with puncta: 24 h post-transfection, means ± SEM
From the text: Myristoylated PQ (residues 1898–2035, ^myrPQ-YFP) was constructed as follows. A DNA fragment encoding the myristoylation sequence taken from ref ([25]) was inserted between the XhoI and HindIII sites of pEYFP-N1 (Clontech) to generate p^myrEYFP-N1. PQ^1898–2035 was amplified by PCR from the existing pGex template with the following primer pair containing restriction endonuclease sites (underlined) for subsequent subcloning into p^myrEYFP-N1: sense (HindIII), 5′-ATAT AAGCTTAAGTCCACGGACCTGACAGTG-3′; antisense (SacII), 5′-ATAT CCGCGGGGGGAGGTAGTGTTCGCTGTC-3′. All constructs were verified by dideoxy sequencing (The Sequencing Service, University of Dundee, Dundee, U.K.).
HeLa cells were cultured in DMEM supplemented with 10% (v/v) fetal bovine serum, 1% (v/v) penicillin/streptomycin, and 1% (v/v) nonessential amino acids. All cells were maintained in a humidified 95% air/5% CO2 atmosphere at 37 °C. Cells were plated onto sterile 13 mm round coverslips at a density of 0.25 × 10^6 cells/well. After 24 h, cells were transiently transfected with the indicated expression vectors using GeneJuice transfection reagent (Novagen) according to the manufacturer’s protocol. For single and double transfections, 1 μg of each plasmid was used.
Twenty-four hours post-transfection, cells on coverslips were washed with phosphate-buffered saline [137 mM NaCl, 2.7 mM KCl, 10 mM Na2PO4, and 2 mM NaH2PO4 (pH 7.4)] and then fixed with 4% (v/v) formaldehyde in PBS for 6 min at room temperature. Coverslips were subsequently air-dried and mounted onto microscope slides using Prolong antifade glycerol (Life Technologies). Fixed cells were imaged using a Leica TCS-SP2 confocal system (Leica Microsystems, Heidelberg, Germany) with a pinhole set to 1 Airy unit and a 63× oil immersion objective with a numerical aperture of 1.3. Images were exported as TIFF files and compiled, processed, and analyzed with ImageJ and CorelDraw X6 applications.

[1] = without Ca2+ (5 mM EGTA, 5 mM NTA)

T1 sequence (P62166 whole entry, species assumed, the tested form may be a part): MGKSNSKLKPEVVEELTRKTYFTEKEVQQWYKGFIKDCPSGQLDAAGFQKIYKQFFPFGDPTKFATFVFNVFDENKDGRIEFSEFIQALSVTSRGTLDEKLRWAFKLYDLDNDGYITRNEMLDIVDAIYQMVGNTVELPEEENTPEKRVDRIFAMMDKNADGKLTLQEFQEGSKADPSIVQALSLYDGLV

Molecule | CaM binding (qualitative) (CaM) | NCS-1 binding (qualitative) (NCS-1; presence or absence of 1 μM free Ca2+, Western blot) | average NCS-1 bound (NCS-1; with Ca2+ (1 μM free Ca2+)) [%] | average NCS-1 bound (NCS-1; [1]) [%] | cellular localization (HeLa cells; HeLa cells, without myrPQ-YFP puncta) | colocalization of soluble mCherry with myrPQ-YFP (HeLa cells; control cotransfection with soluble mCherry, data not shown) | cells with puncta (HeLa cells; control myrPQ-YFP + mCherry, three independent experiments) [%] | cells with puncta (HeLa cells; cotransfected NCS-1-mCherry + myrPQ-YFP, four independent experiments) [%]
GST-PQ: GST-tagged residues 1898–2035 of the rat P/Q channel α1 subunit, encompassing IQ motif and CBD (protein, UniProt P54282 1898-2035, looked up, fragment, GST tag, GST-tagged residues 1898–2035 of the rat P/Q channel α1 subunit, encompassing IQ motif and CBD) KSTDLTVGKIYAAMMIMEYYRQSKAKKLQAMREEQNRTPLMFQRMEPPSPTQEGGPSQNALPSTQLDPGGGLMAQESSMKESPSWVTQRAQEMFQKTGTWSPERGPPIDMPNSQPNSQSVEMREMGTDGYSDSEHYLP | Ca^2+-dependent binding | Ca^2+-dependent binding | 100 | 31.2 | – | – | – | –
^myrPQ-YFP: C-terminally YFP-tagged P/Q 1898–2035 with N-terminal myristoylation consensus sequence (protein, UniProt P54282 1898-2035, looked up, fragment, N-terminal myristoylation sequence, C-terminal YFP tag) KSTDLTVGKIYAAMMIMEYYRQSKAKKLQAMREEQNRTPLMFQRMEPPSPTQEGGPSQNALPSTQLDPGGGLMAQESSMKESPSWVTQRAQEMFQKTGTWSPERGPPIDMPNSQPNSQSVEMREMGTDGYSDSEHYLP | – | – | – | – | plasma membrane and/or large cytosolic puncta | no colocalization | 43.6 ± 3 | 39.5 ± 9.2
GST^IM→EE: GST-PQ with IM residues at positions 1913 and 1914 mutated to glutamic acid (protein, UniProt P54282 1898-2035, looked up, variant I1913E M1914E, GST tag, GST-PQ with IM residues at positions 1913 and 1914 mutated to glutamic acid) KSTDLTVGKIYAAMMEEEYYRQSKAKKLQAMREEQNRTPLMFQRMEPPSPTQEGGPSQNALPSTQLDPGGGLMAQESSMKESPSWVTQRAQEMFQKTGTWSPERGPPIDMPNSQPNSQSVEMREMGTDGYSDSEHYLP | no detectable binding | – | – | 2.8 | – | – | – | –
GST-CBD: GST-tagged CaM-binding domain, residues 1950–2035 of the rat P/Q channel α1 subunit (protein, UniProt P54282 1950-2035, looked up, fragment, GST tag) EGGPSQNALPSTQLDPGGGLMAQESSMKESPSWVTQRAQEMFQKTGTWSPERGPPIDMPNSQPNSQSVEMREMGTDGYSDSEHYLP | no detectable binding | – | – | 4.9 | – | – | – | –
